Measurements reported in PMC5700162, “Structural insights into the committed step of bacterial phospholipid biosynthesis” (Nature Communications, 2017).
Where a chain is given by its changes, count along the chain named. Names and notes keep the numbering of the source.

B1: aaPlsY (Aquifex aeolicus VF5) (protein)
chain: MKALFLVIFAYLLGSITFGEVIAKLKGVDLRNVGSGNVGATNVTRALGKKYGVLVFFLDFLKGFIPALIAVKSFGIDSWVLTFTGLASVLGHMYPVFFGFKGGKGVATALGVVFAVSPSVALFSFLVWLGIFLWKRYVSLASITATISAFLFLFVAGYPVNVLFMAIVIGALIIYRHRENINRLLTGREHRF
notes: full length, 192 residues, monomer, codon-optimised gene, E. coli BL21(DE3); assays: C-terminal His8 tag (p3EC); crystals: C-terminal His-eGFP removed by 3C protease; DDM-purified, reconstituted in lipid cubic phase
B2: aaPlsY (Aquifex aeolicus VF5; S35A) (protein)
chain: B1 chain with S35A
notes: as for B1
B3: aaPlsY (Aquifex aeolicus VF5; E189A) (protein)
chain: B1 chain with E189A
notes: as for B1
B4: aaPlsY (Aquifex aeolicus VF5; N180A) (protein)
chain: B1 chain with N180A
notes: as for B1
B5: aaPlsY (Aquifex aeolicus VF5; N37A) (protein)
chain: B1 chain with N37A
notes: as for B1
B6: aaPlsY (Aquifex aeolicus VF5; H92A) (protein)
chain: B1 chain with H92A
notes: as for B1
B7: aaPlsY (Aquifex aeolicus VF5; T41A) (protein)
chain: B1 chain with T41A
notes: as for B1
B8: aaPlsY (Aquifex aeolicus VF5; H177A) (protein)
chain: B1 chain with H177A
notes: as for B1
B9: aaPlsY (Aquifex aeolicus VF5; K104A) (protein)
chain: B1 chain with K104A
notes: as for B1
B10: aaPlsY (Aquifex aeolicus VF5; S142A) (protein)
chain: B1 chain with S142A
notes: as for B1
B11: aaPlsY (Aquifex aeolicus VF5; R45A) (protein)
chain: B1 chain with R45A
notes: as for B1

Substrate: O=P(O)(O)OC[C@H](O)CO
Assay: coupled MDCC-PBP Pi-biosensor fluorescence assay in lipid cubic phase (monoolein)
Assay type: biochemical, Aquifex aeolicus
Conditions: co-substrate 1.8 mol% 16:0-P, pH 8.0, 30 °C, 0-50 mM G3P

Molecule B1 has a Km of 1.39 mM.

Molecule B1 has a kcat of 13.4 s⁻¹.

Biological target: T1, aaPlsY (Aquifex aeolicus, UniProt O66905)
Assay: as above
Assay type: biochemical
Set-up: gene plsY; full length, 192 residues, monomer, codon-optimised gene, E. coli BL21(DE3); assays: C-terminal His8 tag (p3EC); crystals: C-terminal His-eGFP removed by 3C protease; DDM-purified, reconstituted in lipid cubic phase
Conditions: co-substrate 30 mM glycerol phosphate; pH 8.0, 30 °C; 0-2 mol% 16:0-P in the lipid phase

With `CCCCCCCCCCCCCCCC(=O)OP(=O)(O)O` [16:0-P, palmitoyl phosphate] the “apparent Km” value was 0.1 mol% (relative to monoolein).

Substrate: O=P(O)(O)OC[C@H](O)CO
Assay: as above
Assay type: biochemical, Aquifex aeolicus
Conditions: co-substrate 3.3-5.2 mol% 16:0-P, pH 8.0, 30 °C, no technical replicates
Excerpt: coupled MDCC-PBP Pi-biosensor fluorescence assay in lipid cubic phase (monoolein) on […]

Point of comparison: B3, Km 5.79 mM. Against it:
- B2 — 2.4-fold higher, 13.75 mM
- B4 — 4.5-fold higher, 26.31 mM
- B5 — 1.9-fold lower, 3.04 mM
- B6 — 2.2-fold lower, 2.64 mM
- B7 — 13-fold lower, 0.43 mM
- B8 — 1.6-fold higher, 9.24 mM
- B9 — within 1.5-fold, 6.58 mM
- B10 — 2-fold lower, 2.89 mM
- B11 — 8.7-fold higher, 50.46 mM

Point of comparison: B5, kcat 2.49 s⁻¹. Against it:
- B2 — 3.9-fold lower, 0.64 s⁻¹
- B3 — 7.4-fold higher, 18.5 s⁻¹
- B4 — 4-fold lower, 0.62 s⁻¹
- B6 — within 1.5-fold, 2.37 s⁻¹
- B7 — 3.9-fold lower, 0.64 s⁻¹
- B8 — 2.8-fold lower, 0.88 s⁻¹
- B9 — 2.5-fold lower, 1 s⁻¹
- B10 — 1.7-fold higher, 4.29 s⁻¹
- B11 — 17-fold lower, 0.15 s⁻¹

Biological target: T1, aaPlsY
Assay: not given
Set-up: gene plsY
Conditions: 7.8 MAG LCP with 0.4 M Na2HPO4, pH 7.0; three phosphates from phosphate hole to phosphate clamp

In the case of `O=P(O)(O)O` [Pi, inorganic phosphate], the “X-ray crystal structure, 1.83 Å” value is reported as “three phosphates are trapped in a positive patch stretching from the phosphate hole”.
